± gives the standard deviation.
Assay: protein stability index of a GFP-peptide fusion (GPS, HEK-293T) (PSI 1-6); higher = more stable
[1] = treatment: DMSO, c terminus: a fixed tail appended
[2] = treatment: MLN4924 1 uM, 8 h, c terminus: a fixed tail appended
[3] = treatment: DMSO, c terminus: native
[4] = treatment: MLN4924 1 uM, 8 h, c terminus: native
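Note: 24-mer peptide tiles fused after GFP, lentivirally expressed, FACS-sorted into six equal bins by GFP/DsRed ratio, decoded by Illumina sequencing, PSI is the read-weighted mean bin number.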

Sequence	protein stability index [1]	protein stability index [2]	protein stability index [3]	protein stability index [4]
EHLDNLRLNLTNTKQNFFSQTPIL [INTS3]	2.35 ± 0.28	2.48 ± 0.32		
LSLEEELSRVKAAALSERGQAEEE [LRRC45]	5.45 ± 0.2	5.37 ± 0.16		
QKTSRSSSIPCSGSLDGRELSRQV [PPEF2]	4.32 ± 0.23	4.48 ± 0.42		
IDPLLYMTEWFMCAFSRTLPWSSV [TBC1D10A]	3.43 ± 0.23	3.16 ± 0.27		
SQEREGLLIVKLEEDCAWSQELPP [ZNF263]	3.72 ± 0.068	3.89 ± 0.18		
NVCSLLAQTPLHVAAETGHTSTAR [RIPK4]	3.67 ± 0.26	3.47 ± 0.27		
EPQWFYEETESSDDVEVLTLKKFK [C8orf76]	4.66 ± 0.094	4.74 ± 0.15		
GSVAVVEAECEKSSATTYFWYREA [SLC6A17]	2.81 ± 0.48	2.62 ± 0.35		
TREAHRESSVPVTPSVPPPASQHS [FBF1]	4.94 ± 0.099	5.07 ± 0.12		
RAGPDSAGIALYSHEDVCVFKCSV [CARM1]	2.35 ± 0.47	2.06 ± 0.41		
NIQVTGSAALFYLTNSEYRSEQSV [ZER1]	2.63 ± 0.24	2.84 ± 0.19		
LLAEREQEEAIAQFPYVEFTGRDS [TMEM106C]	4.6 ± 0.27	4.72 ± 0.13		
DFPAHRIVLAACSDYFCAMFTSEL [KLHL12]	3.08 ± 0.41	3.27 ± 0.51		
IAGNKCDLIDVREVMERDAKDYAD [RAB22A]	4.98 ± 0.22	5.06 ± 0.11		
AAETRGAVEGAARTTPSRREITGV [PALM]	4.86 ± 0.36	5.07 ± 0.18		
MRVDLRAGDEAVFAQYDSFHVDSA [TNXB]	3.34 ± 0.56	3.22 ± 0.37		
LNTLTLNVKSEKVYTRHGVPISVT [FLOT1]	2.51 ± 0.079	2.61 ± 0.21		
ITERDKRPEGYNLKDEEGKLKDLS [PPP2R2C]	5.51 ± 0.23	5.54 ± 0.13		
PHTVLDRQLLCLIDYYESKIRKIH [CEP70]	2.46 ± 0.34	2.28 ± 0.19		
LIWSYPAGSLTFPVRPFFYTGHR [TRIM43]			1.97 ± 0.37	2.15 ± 0.11
NKQTLSSGEKYDPDANTWTALPPM [GAN]	4.07 ± 0.39	4.03 ± 0.1		
SHEANKLQDMLDGFIKKFVLCPEC [EIF5]	2.49 ± 0.74	2.65 ± 0.38		

Sequence	protein stability index [1]	protein stability index [2]	protein stability index [3]	protein stability index [4]
ETLPELKDDKDFTGTVHRIDNTTV [KCNA1]	5.12 ± 0.24	5.17 ± 0.072		
KADTKGFCNISLFEDLPLQEPQSP [PLAGL1]	4.46 ± 0.14	4.61 ± 0.12		
LPQPLAAHAGAVHNGKIYISGGVH [KLHL14]	3.17 ± 0.24	3.27 ± 0.3		
QFALTNGDPLNCHSYLSGYISLLL [NR2F2]	2.57 ± 0.57	2.28 ± 0.3		
PDQVAPFTFLQPLPLSPGVLSSTP [ATF4]	3.44 ± 0.33	3.74 ± 0.19		
ALGDIREVQKLVESGVDVNSQNEV [ANKRD40]	5.28 ± 0.3	5.24 ± 0.29		
TKPSFESGRRGPPPPPRSRGPPRG [RBMX]	4.74 ± 0.33	4.81 ± 0.29		
IELLTGETWNPFKLQYQLRNVRER [GOLPH3L]	2.29 ± 0.27	2.49 ± 0.21		
SLPTTAPSNSSSLTLSGIKEDNSL [MYBL2]	4.91 ± 0.17	5.2 ± 0.13		
WEHSAPQRLPRSAPPGSLVTKVTA [PCDHGC5]	3.84 ± 0.092	4.02 ± 0.18		
SVTRSCLLEEEEESGEEAAEAME [POP5]			5.52 ± 0.23	5.49 ± 0.12
SGRLSASWEPLSGPSTPSPVAAQF [FCHO1]	3.14 ± 0.25	3.02 ± 0.23		
SRQGSAEALRALQEGLWLDRGTRV [PKD2L1]	3.6 ± 0.37	3.28 ± 0.27		
IFSVLNSDDAAAPALETQPQGDEE [SMOC2]	5.22 ± 0.23	5.29 ± 0.44		
LKNPFFRYTGTTPSPPPGSHYTSP [CARM1]	2.9 ± 0.16	3.16 ± 0.25		
DWEIQEDSRLMCSSVQKALFEEED [CCDC3]	5.34 ± 0.25	5.54 ± 0.36		
MPPKFKRHLNDDDVTGSVKSERRN [VAMP4]	4.79 ± 0.27	4.84 ± 0.18		
IELANIRDEVAFHTAKCEKLQKEK [MTUS2]	4.31 ± 0.3	4.46 ± 0.44		
AIVQQVPAPSRMQMPQGNPLLLSH [SNX8]	2.72 ± 0.38	2.7 ± 0.31		
LSWYRGRRPRTAFTQNQIEVLENV [HESX1]	3.03 ± 0.094	3 ± 0.28		
PPVMPGMPPGLHHQRKYTQSFCGE [ZNF207]	3.76 ± 0.15	3.75 ± 0.14		
KEEGTVNGASWHTVAGSLNDFSYL [CPXM2]	3.35 ± 0.53	3.33 ± 0.34		

Sequence	protein stability index [1]	protein stability index [2]	protein stability index [3]	protein stability index [4]
SPAQQVPKNPALEAFLAQFSQLED [TOR1AIP2]	4.26 ± 0.45	4.38 ± 0.31		
QLTEKLARVNENLARKIASRNEFD [SSNA1]	2.85 ± 0.18	3.24 ± 0.39		
AEQRGDNALKDARAKLDELEGALH [KRT71]	5.16 ± 0.2	5.37 ± 0.29		
DLDSRTDSDIPEIPPSSDRTPEIL [CDS1]	5.42 ± 0.21	5.51 ± 0.21		
LSRLSVNSVTAGDYSRPLHISTFI [TSN]	2.42 ± 0.61	2.31 ± 0.24		
LGQIVLLPAEARERSRGRSISRGR [MATN2]	3.86 ± 0.45	4.21 ± 0.18		
SKKGLSFFAFEHSEEYQQAQHKFL [TCF25]	2.85 ± 0.21	3 ± 0.15		
LAQIAEVLEMFDLRMMVENIMNKE [RHOBTB1]	2.54 ± 0.35	2.22 ± 0.12		
FLAAEQDIREEIRKVVQSLEQTAR [TSN]	2.57 ± 0.45	3.25 ± 0.64		
PLRVDLILENTSKVPAPKDVLAHQ [NOP53]	3.28 ± 0.036	3.5 ± 0.29		
DGRSLSKLNLCEDGPCHKRRASIC [SCARA5]	3.88 ± 0.33	3.93 ± 0.3		
DEAGGGAEGDSWEEEGFGSSSPVK [WEE1]	5.3 ± 0.068	5.35 ± 0.26		
EPLFEAGDATLASDLQDWASVGAF [FOXJ1]	3.85 ± 0.14	3.92 ± 0.4		
RLLSDATVEKDESHAGKVVLRSWY [FAM50A]	3.02 ± 0.11	3.26 ± 0.12		
SMKHTATARFQRNHRLISEILSES [SMARCE1]	2.95 ± 0.12	3.24 ± 0.5		
KENQDIRLLQAQLQAQKEELQSLM [PBXIP1]	4.05 ± 0.12	4.14 ± 0.22		
KDSVMQQNLVYYRFHRARWGLEEE [P3H4]	2.51 ± 0.28	2.43 ± 0.085		
AVVAVDRQAIFPDTWTLTEEHGLQ [PXN]	3.35 ± 0.51	3.35 ± 0.34		
PRPQSEESWDEEDKRNYPSLELDK [CHGB]	5.52 ± 0.25	5.44 ± 0.25		
MLAIITKMTLTQVSTWFANARRRL [IRX6]	2.29 ± 0.49	2.26 ± 0.27		
VCYHYYADWFMSLGVGLLTFASLE [TMEM40]	3.04 ± 0.18	3.08 ± 0.18		

Reference: the supplement of paper PMC10567573
